# Source: US20240317871A1 (IMMUNOMIC THERAPEUTICS, published 2024)
# Positions count from the first letter of the chain named.
# B1: Ab_029 (H5S15-14A14B) (antibody, V domains shown)
# VH: EVQLQQSGPELVKPGASVKMSCKASGYTFTSYVMHWVKQKPGQGLEWIGYINPYNDDTNCNEKFKGKATLTSDKSSSTAYMELSRLTSEDSAVYYCAKARGYGSTFYYSMDYWGQGTSVTVSS
# VL: DIVMTQSQKFMSTSVGDRVSVTCKASQNVGTNVAWYQQRPGQSPKSLIYSASYRYSGVPDRFTGSGSGTDFTLTISNVQSEDLADYFCQQYNSYPYTFGGGAKLEIK
# notes: also called Ab_29
# B2: Ab_071 (H5S20-3B7A) (antibody, V domains shown)
# VH: QVQLQQSGAELVRPGTSVKISCKASGYTFTNSWLGWVKQRPGHGLEWIGDIYPGGGYNKYNEKFRGKATLTADTSSSTAYMQLSSLTSEDSAVYFCAGAMDYWGQGTSVTVSS
# VL: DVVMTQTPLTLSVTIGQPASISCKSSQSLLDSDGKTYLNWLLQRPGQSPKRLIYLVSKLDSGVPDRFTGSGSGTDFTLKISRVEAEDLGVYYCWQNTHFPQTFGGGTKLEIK
# notes: also called Ab_149; Ab_71
# B3: Ab_045 (H5S15-31A12C) (antibody, V domains shown)
# VH: B2 VH with T28A, R65K, M100L
# VL: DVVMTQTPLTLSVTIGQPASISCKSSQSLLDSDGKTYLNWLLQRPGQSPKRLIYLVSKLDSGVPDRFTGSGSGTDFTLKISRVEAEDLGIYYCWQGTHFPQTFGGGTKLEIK
# notes: also called Ab_45
# B4: Ab_013 (H5S14-14A11A) (antibody, V domains shown)
# VH: B2 VH with T28I, S32Y, V37I, I51V, R65K, A72V, S76A, S85R
# VL: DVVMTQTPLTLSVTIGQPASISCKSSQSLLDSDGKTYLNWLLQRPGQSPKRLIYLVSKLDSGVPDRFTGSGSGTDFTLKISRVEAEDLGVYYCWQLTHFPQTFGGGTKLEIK
# notes: also called Ab_13
# B5: Ab_067 (H5S20-7B7B) (antibody, V domains shown)
# VH: B2 VH with V12I, T28R, V37I, Q39L, Y102S
# VL: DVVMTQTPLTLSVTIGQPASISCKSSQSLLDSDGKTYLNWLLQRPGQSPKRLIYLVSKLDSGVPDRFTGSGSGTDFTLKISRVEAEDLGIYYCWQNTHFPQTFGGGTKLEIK
# notes: also called Ab_67
# B6: Ab_068 (H5S20-24A19A) (antibody, V domains shown)
# VH: QVQLQQSGAELVRPGTSVKISCKASGYTFTNYWLGWVKQRPGHGLEWIGDIYPGGGYIIYNEKFKGKATLTVDSSATTAYIQLNSLTSEDSAVYFCAGAMDHWGQGTSVTVSS
# VL: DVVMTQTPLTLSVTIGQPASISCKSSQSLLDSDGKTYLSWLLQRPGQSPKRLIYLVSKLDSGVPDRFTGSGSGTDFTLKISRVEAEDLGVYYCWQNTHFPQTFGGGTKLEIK
# notes: also called Ab_68
# B7: Ab_012 (H5S14-13A11A) (antibody, V domains shown)
# VH: B2 VH with T28I, V37I, I51V, R65K, A72I, S76A, S85R
# VL: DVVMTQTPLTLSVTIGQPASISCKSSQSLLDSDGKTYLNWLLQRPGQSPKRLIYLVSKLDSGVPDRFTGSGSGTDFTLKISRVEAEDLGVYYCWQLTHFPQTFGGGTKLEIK
# notes: also called Ab_12
# B8: Ab_046 (H5S15-35A31A) (antibody, V domains shown)
# VH: B2 VH with R65K, S84G
# VL: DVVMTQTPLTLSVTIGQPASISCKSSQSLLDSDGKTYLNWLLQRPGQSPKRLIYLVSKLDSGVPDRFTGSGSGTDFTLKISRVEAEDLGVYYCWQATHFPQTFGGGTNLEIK
# notes: also called Ab_46
# B9: Ab_069 (H5S20-43A19B) (antibody, V domains shown)
# VH: B6 VH with K19M, I81M, N84S, H102Y
# VL: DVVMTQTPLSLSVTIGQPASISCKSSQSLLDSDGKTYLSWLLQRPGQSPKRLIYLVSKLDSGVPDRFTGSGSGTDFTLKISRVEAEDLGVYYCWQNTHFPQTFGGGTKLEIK
# notes: also called Ab_155; Ab_69
# B10: Ab_011 (H5S14-12A11A) (antibody, V domains shown)
# VH: B2 VH with Y27N, T28I, V37I, I51V, R65K, A72I, S76A, S85R, A92G
# VL: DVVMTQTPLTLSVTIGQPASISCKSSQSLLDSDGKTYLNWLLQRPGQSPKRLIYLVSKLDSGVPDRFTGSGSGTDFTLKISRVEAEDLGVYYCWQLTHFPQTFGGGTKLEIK
# notes: also called Ab_11
# B11: Ab_006 (H5S14-5A5A) (antibody, V domains shown)
# VH: DVQLQESGPGLVKPSQSLSLTCTVTGYSITSDFAWNWIRQFPGNKLEWMGYIVYSGSTSYNPSLKSRISITRDTSKNQFFLQLNSVTAEDTATYFCTRGMDYWGQGTSVTVSS
# VL: QIVLTQSPAIISASLGEEVTLTCSASSSVSYMHWYQQKSGTSPKLLIYSTSNLASGVPSRFSGSGSGTFYSLTISSVEAEDAADYYCHQWSSYLTFGAGTKLELK
# notes: also called Ab_6
# B12: Ab_054 (H5S19-21A17C) (antibody, V domains shown)
# VH: QVQLKESGPGLVAPSQSLSITCTVSGFSLTSYGVHWVRQPPGKGLEWLGVIWAGGITNYNSALMSRLSISTDNSRSQVFLKMNSLQTDDTAMYYCARDWERDSSGPFPYWGQGTLVTVSA
# VL: DIQMTQTTSSLSASLGDRVTISCSASQGISNYLNWYQQKPDGTVKLLIYYTSSLHSGVPSRFSGSGSGTDYSLTISNLEPEDIATYFCQQYSKLPWTFGGGTKLEIK
# notes: also called Ab_54
# B13: Ab_010 (H5S14-10A9A) (antibody, V domains shown)
# VH: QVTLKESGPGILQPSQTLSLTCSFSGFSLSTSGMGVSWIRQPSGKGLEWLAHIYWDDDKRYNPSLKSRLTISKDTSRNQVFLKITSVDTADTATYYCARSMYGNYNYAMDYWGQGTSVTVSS
# VL: DIQMTQSPASLSASVGETVTITCRASENIYSYLAWYQQKQGKSPQLLVYNAKTLAEGVPSRFSGSGSGTQFSLKINSLQPEDFGSYYCQHHYGTMYTFGGGTKLEIK
# notes: also called Ab_10
# B14: Ab_028 (H5S15-33A29A) (antibody, V domains shown)
# VH: QVQLKQSGPGLVQPSQSLSITCTVSGFSLTTYGVHWVRQSPGKGLEWLGVIWSGGNTDYNPAFISRLSISKDNSKSQVFFKMNTLQASDTAIYYCARRGYNKGYAMDYWGQGTSFTVSS
# VL: EIVLTQSPALMTASPGEKVTITCSVSSTISSRNLHWYQQKSEASPKPWIYGTSNLASGVPVRFSGSGSGTSYSLTISSMEAEDAATYYCQQWNSYPLTFGSGTKLEIK
# notes: also called Ab_28
# B15: Ab_025 (H5S15-2A2A) (antibody, V domains shown)
# VH: EVQLQQSGAELVKPGASVKLSCTASGFNIKDTYMHWVKQRPEQGLEWIGRIDPANDNTKYDPKFQGKATITADTSSNTAYLQLSSLTSEDTAVYYCARVYYAMDYWGQGTSVTVSS
# VL: DIQMTQSPASLSASVGETVTITCRASENIYSYLAWYQQKQGKSPQLLVYNAKTLAEGVPSRFSGSGSGTQFSLKINSLQPEDFGSYYCQHHYGTYTFGGGTKLEIK
# notes: also called Ab_25
# B16: Ab_026 (H5S15-11A3B) (antibody, V domains shown)
# VH: EVQLQQSGADLVKPGASVKLSCTASGFNIKDTYMHWVKQRPEQGLEWIGRIAPANGRTKYDPKFQGKATITADTSSNTAYLQLSSLTSEDTAVYYCANYYASSYDWFAYWGQGTLVTVSA
# VL: DVLMTQTPLSLTVSLGHQASISCRSSQSIVHSNGNTYLEWYLQKPGQSPKLLIYKVSNRFSGVPDRFSGSGSGTDFTLKISRVEAEDLGVYYCFQGSHVPLTFGAGTKLELK
# notes: also called Ab_26
# B17: Ab_027 (H5S15-17A16A) (antibody, V domains shown)
# VH: B16 VH with D10E, R57K, Y60F, A101G, S102R, Y104N, A108V
# VL: B16 VL with T12P, H17D, N35I, K50E
# notes: also called Ab_27
# Molecular target: T1, His-tagged human HVEM (human, UniProt Q92956 39-202, limits assumed)
# T1 construct: Analyte of the BLI assay, 200 nM in PBS; not shown: His tag
# T1 sequence (looked up): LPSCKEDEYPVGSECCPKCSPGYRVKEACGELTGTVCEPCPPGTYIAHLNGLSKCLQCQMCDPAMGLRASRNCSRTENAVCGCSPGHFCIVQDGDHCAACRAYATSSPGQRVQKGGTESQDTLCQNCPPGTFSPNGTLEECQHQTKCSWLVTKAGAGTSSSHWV
# Assay: BLI OctetRed96, mAb captured, 200 nM His-HVEM
# How it was run: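 Murine anti-human HVEM antibodies captured from culture supernatant on anti-mouse IgG Fc biosensors, then associated with 200 nM His-tagged human HVEM in PBS, followed by dissociation in PBS. koff, kon and KD obtained by curve fitting.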
Binder,Kd,koff,kon
B1,47 nM,0.0403 s⁻¹,858000 M⁻¹ s⁻¹
B2,2.2 nM,0.00093 s⁻¹,423000 M⁻¹ s⁻¹
B3,7.32 nM,0.00265 s⁻¹,362000 M⁻¹ s⁻¹
B4,4.39 nM,0.00149 s⁻¹,340000 M⁻¹ s⁻¹
B5,2.65 nM,0.00134 s⁻¹,505000 M⁻¹ s⁻¹
B6,5.99 nM,0.00192 s⁻¹,320000 M⁻¹ s⁻¹
B7,3.22 nM,0.00121 s⁻¹,375000 M⁻¹ s⁻¹
B8,4.59 nM,0.00169 s⁻¹,368000 M⁻¹ s⁻¹
B9,2.97 nM,0.000803 s⁻¹,271000 M⁻¹ s⁻¹
B10,2.78 nM,0.00107 s⁻¹,385000 M⁻¹ s⁻¹
B11,19.6 nM,0.00692 s⁻¹,353000 M⁻¹ s⁻¹
B12,20.4 nM,0.00291 s⁻¹,143000 M⁻¹ s⁻¹
B13,7210 nM,1.15 s⁻¹,159000 M⁻¹ s⁻¹
B14,6.9 nM,0.00266 s⁻¹,386000 M⁻¹ s⁻¹
B15,11.6 nM,0.00596 s⁻¹,515000 M⁻¹ s⁻¹
B16,11.1 nM,0.00864 s⁻¹,776000 M⁻¹ s⁻¹
B17,2.68 nM,0.00171 s⁻¹,639000 M⁻¹ s⁻¹

# Molecular target: T2, human HVEM (human, UniProt Q92956 39-202, limits assumed)
# T2 sequence (looked up): T1 sequence (looked up)
# Assay: ELISA
row,Binder,ELISA signal
1,B1,3.33
2,B2,3.08
3,B3,3.08
4,B4,3
5,B5,3.05
6,B6,3.03
7,B7,3.08
8,B8,2.94
9,B9,3.13
10,B10,3.16
11,B11,3.14
12,B12,2.5
13,B13,2.68
14,B14,3.16
15,B15,3.01
16,B16,3.1
17,B17,3.13

# Molecular target: T3, cynomolgus monkey HVEM (cynomolgus monkey, UniProt A0A2K5W0R1 39-203)
# T3 sequence: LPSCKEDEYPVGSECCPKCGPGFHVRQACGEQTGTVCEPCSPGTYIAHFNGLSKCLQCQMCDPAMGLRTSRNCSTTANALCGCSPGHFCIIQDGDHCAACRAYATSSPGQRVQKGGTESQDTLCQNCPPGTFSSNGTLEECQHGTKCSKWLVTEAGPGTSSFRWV
# Assay: ELISA
row,Binder,ELISA signal
1,B1,0.068
2,B2,2.98
3,B3,2.9
4,B4,2.74
5,B5,3.04
6,B6,3.04
7,B7,2.89
8,B8,3.03
9,B9,3.04
10,B10,2.97
11,B11,2.69
12,B12,2.23
13,B13,0.068
14,B14,2.19
15,B15,3.16
16,B16,0.088
17,B17,0.064

# Molecular target: T4, murine HVEM (murine, UniProt Q80WM9 39-206, limits assumed)
# T4 construct: also called Mouse
# T4 sequence (looked up): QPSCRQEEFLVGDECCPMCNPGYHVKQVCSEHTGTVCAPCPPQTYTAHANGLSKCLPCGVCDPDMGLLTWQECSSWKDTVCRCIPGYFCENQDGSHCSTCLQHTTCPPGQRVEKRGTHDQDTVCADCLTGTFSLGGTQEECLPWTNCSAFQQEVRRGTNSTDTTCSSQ
# Assay: ELISA
row,Binder,ELISA signal
1,B1,0.045
2,B2,0.047
3,B3,0.042
4,B4,0.048
5,B5,0.047
6,B6,0.044
7,B7,0.044
8,B8,0.042
9,B9,0.054
10,B10,0.049
11,B11,0.043
12,B12,0.042
13,B13,0.044
14,B14,0.05
15,B15,0.045
16,B16,0.043
17,B17,0.043

# Molecular target: T5, Human HEVM recombinant protein (Sino Biological, 10334-H02H) (human, UniProt Q92956 39-202)
# T5 construct: construct known only by catalogue number; also called HVEM; human HVEM
# T5 sequence (looked up): T1 sequence (looked up)
# Assay: competition ELISA, competitor BTLA-His
# Experimental: (§1) The competitive activity of HVEM antibody to BTLA or LIGHT was evaluated with ELISA-based competitive assay. Briefly Human HEVM recombinant protein (Sino Biological, 10334-H02H, 4 ug/ml, 100 ul/well) was coated to ELISA plate (Thermo Scientific, 469949, 4C overnight). A pre-mixture of HVEM antibody clone with seral dilution and 400 nM BTLA-His (R&D systems, 9235-BT-050) or LIGHT-His (SinoBiological, 10386-H07H) recombinant protein was made and added to the ELISA plate after blocking with 3% BSA (200 ul/well, RT 2 Hr) for 1 Hr at RT. The serial dilutions of HVEM antibody clone involve 7 different concentrations, with a 3-fold dilution performed start from 100 nM for BTLA or 325 nM for LIGHT competitive assay. The concentration was the final concentration. Plate was washed with PBST; diluted HRP-anti-His (Biolegend, 652504, 1:1000) with PBS containing 5% FBS was added 100 ul per well for 1 Hr at RT. TMB substrate (KPL, 52-00-00) 100 ul per well after washing and incubate at room temperature for 15 minutes; then stop the development by adding 100 ul stop solution (KPL, 50-85-06). Plate was read at 450 nm. The IC50 was calculated using GraphPad Prism software (GraphPad Software, Inc. San Diego, CA, USA).
row,Binder,IC50
1,B1,1.3 nM
2,B13,11.3 nM
3,B14,1.4 nM
4,B15,10 nM
5,B16,2.4 nM
6,B17,2.2 nM

# Molecular target: T5, Human HEVM recombinant protein (Sino …)
# Assay: competition ELISA, competitor LIGHT-His
# Experimental: as §1
row,Binder,IC50
1,B2,20.4 nM
2,B3,31 nM
3,B4,28.1 nM
4,B5,13.6 nM
5,B6,20.5 nM
6,B7,20.9 nM
7,B8,27.2 nM
8,B9,22.3 nM
9,B10,20.5 nM
10,B11,24.6 nM
11,B12,369 nM
